Source: patent US20230277633

Tests used:
[1] = tested on: human IVIg (an intravenous human immunoglobulin)
[2] = biological target: human IVIg (an intravenous human immunoglobulin); remark: listed apart in the source

## protease IdeZ (Genovis)
[1]
  enzymatic digestion of human IVIg in vitro, SDS-PAGE (10 ug IVIg per 1 Unit IdeZ, 37 C, 1 h): all the three proteases can effectively cleave human IVIg

B1: protease IdeE (protein)
chain: DDYQRNATEAYAKEVPHQITSVWTKGVTPLTPEQFRYNNEDVIHAPYLAHQGWYDITKAFDGKDNLLCGAATAGNMLHWWFDQNKTEIEAYLSKHPEKQKIIFNNQELFDLKAAIDTKDSQTNSQLFNYFRDKAFPNLSARQLGVMPDLVLDMFINGYYLNVFKTQSTDVNRPYQDKDKRGGIFDAVFTRGDQTTLLTARHDLKNKGLNDISTIIKQELTEGRALALSHTYANVSISHVINLWGADFNAEGNLEAIYVTDSDANASIGMKKYFVGINAHRHVAISAKKIEGENIGAQVLGLFTLSSGKDIWQKLSHHHHHH
[2]
  enzymatic digestion of human IVIg in vitro, SDS-PAGE (enzyme:IVIg 1:200 by mass, 37 C, 1 h): all the three proteases can effectively cleave human IVIg

B2: protease IdeS (protein)
chain: DSFSANQEIRYSEVTPYHVTSVWTKGVTPPANFTQGEDVFHAPYVANQGWYDITKTFNGKDDLLCGAATAGNMLHWWFDQNKDQIKRYLEEHPEKQKINFNGEQMFDVKEAIDTKNHQLDSKLFEYFKEKAFPYLSTKHLGVFPDHVIDMFINGYRLSLTNHGPTPVKEGSKDPRGGIFDAVFTRGDQSKLLTSRHDFKEKNLKEISDLIKKELTEGKALGLSHTYANVRINHVINLWGADFDSNGNLKAIYVTDSDSNASIGMKKYFVGVNSAGKVAISAKEIKEDNIGAQVLGLFTLSTGQDSWNQTNHHHHHHSSG
[2]
  enzymatic digestion of human IVIg in vitro, SDS-PAGE (enzyme:IVIg 1:200 by mass, 37 C, 1 h): all the three proteases can effectively cleave human IVIg
